Target: WH-RBD-TFc (SARS-CoV-2 spike glycoprotein receptor binding domain, thrombin site, human IgG1 Fc fusion) (SARS-CoV-2; human, UniProt P0DTC2 319-541)

B1: Fab F1-B3 (Fab, V domains shown)
VH: QVQLQESGGGLVQPGGSLRLSCAASGFTVSSNYMSWVRQAPGEGLEWVSSISSSSSYIYYADSVKGRFTISRDNAKNSLYLQMNSLRAEDTAVYYCARGKWLRGAFDIWGQGTTVTVSS
VL: NFMLTQPHSMSESPGKTVTISCTGSSGSIANNYVQWYRQRPGSAPITVIYEDNQRPSGVPDRFSGSIDSSSNSASLTISGLKTEDEADYYCQSYDSSTHWVFGGGTKLTVLG
EC50: 12 nM

B2: Fab F1-B5 (Fab, V domains shown)
VH: EVQLVQSGGGVVQPGRSLRLSCAASGFTVSSNYMSWVRQAPGKGLEWVSVIYSGGSTYYADSVKGRFTISRDNSKNTLYLQMNSLRAEDTAVYYCARGDGSDDYYYGMDVWGQGTTVTVSS
VL: QAVLTQPSSVSGAPGQRVTISCTGSSSNVGAGYDVHWYQQLPGTAPKLLIYGNSNRPSGVPDRFSGSKSGTSASLAITGLQAEDEADYYCQSYDSSLSGSVFGGGTKLTVLG
EC50: 63 nM
